Data reported in patent US20140044644A1 (UNIVERSITY OF ZURICH, published 2014).

What was measured:
[1] = biological target: T1, Aβ40 (synthetic, fibrillar) (UniProt P05067 672-711); assay: ELISA, Aβ40 coated, rat recombinant ankG in solution
T1 construct: domain: Aβ40; also called fibrillar Aβ40; Aβ40 peptide

[2] = biological target: T2, Aβ42 (synthetic, fibrillar) (UniProt P05067 672-713); assay: ELISA, Aβ42 coated, rat recombinant ankG in solution
T2 construct: domain: Aβ42; also called fibrillar Aβ42; Aβ42 peptide
T2 sequence (P05067 672-713 limits assumed): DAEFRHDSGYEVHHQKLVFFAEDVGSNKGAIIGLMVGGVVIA

T1 sequence (P05067 672-711 limits assumed): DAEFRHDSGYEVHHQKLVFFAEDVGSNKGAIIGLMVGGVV

B1: rat recombinant ankG (ankyrin G) (other, UniProt O70511-3 1-1806, looked up)
chain: MSEEAKEKTAKPAHRKRKGKKSDANASYLRAARAGHLEKALDYIKNGVDVNICNQNGLNALHLASKEGHVEVVSELLQREANVDAATKKGNTALHIASLAGQAEVVKVLVTNGANVNAQSQNGFTPLYMAAQENHLEVVRFLLDNGASQSLATEDGFTPLAVALQQGHDQVVSLLLENDTKGKVRLPALHIAARKDDTKAAALLLQNDTNADIESKSGFTPLHIAAHYGNINVATLLLNRAAAVDFTARNDITPLHVASKRGNANMVKLLLDRGAKIDAKTRDGLTPLHCGARSGHEQVVEMLLDRAAPILSKTKNGLSPLHMATQGDHLNCVQLLLQHNVPVDDVTNDYLTALHVAAHCGHYKVAKVLLDKKANPNAKALNGFTPLHIACKKNRIRVMELLLKHGASIQAVTESGLTPIHVAAFMGHVNIVSQLMHHGASPNTTNVRGETALHMAARSGQAEVVRYLVQDGAQVEAKAKDDQTPLHISARLGKADIVQQLLQQGASPNAATTSGYTPLHLSAREGHEDVAAFLLDHGASLSITTKKGFTPLHVAAKYGKLEVASLLLQKSASPDAAGKSGLTPLHVAAHYDNQKVALLLLDQGASPHAAAKNGYTPLHIAAKKNQMDIATSLLEYGADANAVTRQGIASVHLAAQEGHVDMVSLLLSRNANVNLSNKSGLTPLHLAAQEDRVNVAEVLVNQGAHVDAQTKMGYTPLHVGCHYGNIKIVNFLLQHSAKVNAKTKNGYTPLHQAAQQGHTHIINVLLQNNASPNELTVNGNTALAIARRLGYISVVDTLKVVTEEIMTTTTITEKHKMNVPETMNEVLDMSDDEGEDAITGDTDKYLGPQDLKELGDDSLPAEGYVGFSLGARSASPKISSDRSYTLNRSSYARDSMMIEELLVPSKEQHLPFTREFDSDSLRHYSWAADTLDNVNLVSSPVHSGFLVSFMVDARGGSMRGSRHHGMRIIIPPRKCTAPTRITCRLVKRHKLANPPPMVEGEGLASRLVEMGPAGAQFLGPVIVEIPHFGSMRGKERELIVLRSENGETWKEHQFDSKNEDLSELLNGMDEELDSPEELGTKRICRIITKDFPQYFAVVSRIKQESNQIGPEGGILSSTTVPLVQASFPEGALTKRIRVGLQAQPVPEETVKKILGNKATFSPIVTVEPRRRKFHKPITMTIPVPPPSGEGVSNGYKGDTTPSLRLLCSITGGTSPAQWEDITGTTPLTFIKDCVSFTTNVSARFWLADCHQVLETVGLASQLYRELICVPYMAKFVVFAKTNDPVESSLRCFCMTDDRVDKTLEQQENFEEVARSKDIEVLEGKPIYVDCYGNLAPLTKGGQQLVFNFYSFKENRLPFSIKVRDTSQEPCGRLSFLKEPKTTKGLPQTAVCNLNITLPAHKKAEKADRRQSFTSLALRPQSPCERTDIRMAIVADHLGLSWTELARELNFSVDEINQIRVENPNSLISQSFMLLKKWVTRDGKNATTDALTSVLTKINRIDIVTLLEGPIFDYGNISGTRSFADENNVFHDPVDGWQNETPSGSLESPAQARRITGGLLDRLDDSSDQVRDPITSYLTGEAGKFEANGNHAEVIPEAKAKAYFPESQNDIGKQSIKENLKPKTHGCGRAEEPVSPLTAYQKSLEETSKLVIEDAPKPCVPVGMKKMTRTPADGKARLNLQEEEGSARSEPKQVKSPGEAFTRMTACCYKDLRHSESDSSSEEERRVTTRVIRRRVIIKGEEAKTIPGESVTEEQFTDEEGNLITRKITRKVIRRIGPQERKQDDVQGEGYKVKTKKEIRNVEKKAH
notes: An immunoreactive band of about 190 kDa is reported; also called purified ankG; recombinant ankG protein
binding result [1]: no binding (tested: ankG 0-2.5 µg/ml) | binding result [2]: no binding (tested: ankG 0-2.5 µg/ml)
